Target: recombinant M. smegmatis RNAP β′ subunit (N-terminal 6xHistidine) (M. smegmatis, UniProt A0QS66 1-1317)
Assay: co-IP

B1: purified recombinant MsmTopoI (enzyme, M. smegmatis, UniProt A0R5D9 1-936, looked up)
chain: MAGGDRGSGGTGNVRRLVIVESPTKARKIAGYLGSNYVVESSRGHIRDLPRNAADVPAKFKSEPWARLGVNVDQNFEPLYIVSPEKKSTVTELKGLLKDVDELYLATDGDREGEAIAWHLLETLKPRVPVKRMVFHEITEPAIRNAAENPRDLDIALVDAQETRRILDRLYGYEVSPVLWKKVAPKLSAGRVQSVATRIIVQRERERMAFHSASYWDVTAELDASVSDPSASPPKFTAKLNTVDGRRVATGRDFDSLGQLKRPDEVLVLDEASAGALASGLRGAQLAVTSVEQKPYTRRPYAPFMTSTLQQEAARKLRFSSERTMSIAQRLYENGYITYMRTDSTTLSESAINAARTQARQLYGEEYVHPSPRQYTRKVKNAQEAHEAIRPAGDVFQTPGQLHSALDTDEFRLYELIWQRTVASQMADARGTTLSLRIGGSASSGEQVVFNASGRTITFPGFLKAYVESIDELAGGESDDAESRLPNLTQGQRVDAADLSADGHQTSPPARYTEASLIKALEELGIGRPSTYSSIIKTIQDRGYVQKKGSALVPSWVAFAVVGLLEQHFGRLVDYDFTAAMEDELDEIANGQEQRTNWLNNFYFGGEHGVEGSIARAGGLKQLVGGNLEGIDAREVNSIKVFDDSEGRPVYVRVGRNGPYLERMVDDPDNPGEQKPQRANLKEDLTPDELTPELAEKLFATPQEGRSLGIDPETGHEIVAKDGRFGPYVTEVLPEPEDGGDDGTAGTPAKKGKKPTGPKPRTGSLFRSMDLETVTLEDALKLLSLPRVVGVDPTTNEEITAQNGRYGPYLKRGTDSRSLATEDQIFTITLDEALKIYAEPKRRGRQAASAPPLRELGNDPVSGKPMVIKDGRFGPYVTDGETNASLRKGDDVLTITDERASELLADRRARGPVKKKAPAKKAAKKAPAKKAAAKKA
binding result: binds

Reference: PMC5610943 (Journal of molecular biology, 2017)
